Laboratory results as given in article PMC12297522.

What was measured:
[1] = target: trastuzumab (wild-type Fc) (human)
[2] = target: trastuzumab-PFc29 (human)

Substance | serum half-life (t1/2) in hiFcRn mice, 5 mg/kg i.v. [1] [days] | serum half-life in hiFcRn mice, 5 mg/kg i.v. [2] [days] | serum half-life (t1/2) in C57BL/6 mice, 5 mg/kg i.v. [1] [days] | serum half-life in C57BL/6 mice, 5 mg/kg i.v. [2] [days]
human FcRn-GST (from UniProt P55899 24-365) (receptor) | 8.3 | 18.9 | – | –
mouse FcRn-GST (from UniProt Q61559 22-365) (receptor) | – | – | 13.1 | 10.5
